For one substance, % HC1-LC2 product results are on record in US20230265134A1.

The target of the assay is Ustekinumab lambda fusion light chain (human). The assay can be described thus: LCMS of Fabs cleaved from IgG; 2 HC + 2 LC co-expressed in HEK293.

Regarding “Panitumumab heavy chain, CH1 K147F S183K (from UniProt P01857 1-101)”, the % HC1-LC2 product was determined as 0%.
